Results as given in patent publication US20090281042A1 (priority 2005, published 2009).
Where two headings read alike, the source gives them in different places. Ends that are not written are not given here.

Columns and labels:
HCV NS3 protease [1] = target: T1, HCV NS3 protease (Hepatitis C virus genotype 1b, UniProt P26663); conditions: mean ± S.D., cited from earlier work
T1 construct: In the case of HCV NS3 protease the site is NS5A/B

HCV NS3 protease [2] = target: T1, HCV NS3 protease; conditions: cited from earlier work
HRV 3C protease = HRV 3C protease (Human rhinovirus 16, UniProt Q82122); format: biochemical, HRV 16
E. coli lysate = format: biochemical; conditions: FIG. 5
SARS 3CL protease = SARS 3CL protease (Severe acute respiratory syndrome coronavirus, UniProt P0C6X7)
[3] = NS3 + Pep4A, P6 and P1′-modified NS4A/NS4B decamer peptides
[4] = NS3 alone, P6 and P1′-modified NS4A/NS4B decamer peptides
[5] = Table 7, NS3 + Pep4A, modified decamer peptides vs wild type DEMEECASHL
[6] = Table 7, NS3 alone, modified decamer peptides vs wild type DEMEECASHL

T1 sequence (P26663 1027-1208, other chains not shown): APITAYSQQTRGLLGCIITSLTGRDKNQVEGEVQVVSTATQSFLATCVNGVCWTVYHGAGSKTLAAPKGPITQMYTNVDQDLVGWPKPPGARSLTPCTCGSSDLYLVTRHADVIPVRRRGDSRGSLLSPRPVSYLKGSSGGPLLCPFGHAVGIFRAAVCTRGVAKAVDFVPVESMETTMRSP

Compound: DEMEECSSHL
- Km (HCV NS3 protease [1]; [3]): 246 ± 54 µM
- kcat (HCV NS3 protease [1]; [3]): 0.0277 ± 0.00367 s⁻¹
- Km (HCV NS3 protease [1]; [4]): 273 ± 21 µM
- kcat (HCV NS3 protease [1]; [4]): 0.00533 ± 0.00017 s⁻¹

Compound: EEMEECASHL
- Km (HCV NS3 protease [1]; [3]): 166 ± 15 µM
- kcat (HCV NS3 protease [1]; [3]): 0.0482 ± 0.00333 s⁻¹
- Km (HCV NS3 protease [1]; [4]): 254 ± 44 µM
- kcat (HCV NS3 protease [1]; [4]): 0.0107 ± 0.00067 s⁻¹

Compound: DEAEECASHL
- Km (HCV NS3 protease [1]; [5]): 124 ± 22 µM
- kcat (HCV NS3 protease [1]; [5]): 0.0355 ± 0.005 s⁻¹
- Km (HCV NS3 protease [1]; [6]): 409 ± 24 µM
- kcat (HCV NS3 protease [1]; [6]): 0.005 ± 0.00033 s⁻¹

Compound: Aprotinin
- effect of protease inhibitor on cleavage of Pep1 (HeLa lysate; Pep1 as substrate): relative insensitivity

Compound: O=S(=O)(F)Cc1ccccc1 [PMSF]
- effect of protease inhibitor on cleavage of Pep1 (HeLa lysate; Pep1 as substrate): relative insensitivity

Compound: DAMEECASHL
- Km (HCV NS3 protease [1]; [5]): 143 ± 27 µM
- kcat (HCV NS3 protease [1]; [5]): 0.0455 ± 0.014 s⁻¹
- Km (HCV NS3 protease [1]; [6]): 569 ± 150 µM
- kcat (HCV NS3 protease [1]; [6]): 0.0143 ± 0.00767 s⁻¹

Compound: DEMEEAASHL
- kcat (HCV NS3 protease [1]; [5]): not cleaved
- kcat (HCV NS3 protease [1]; [6]): not cleaved

Compound: AEMEECASHL
- Km (HCV NS3 protease [1]; [5]): 55 ± 11 µM
- kcat (HCV NS3 protease [1]; [5]): 0.015 ± 0.001 s⁻¹
- Km (HCV NS3 protease [1]; [6]): 125 ± 28 µM
- kcat (HCV NS3 protease [1]; [6]): 0.00167 ± 0.00033 s⁻¹

Compound: DEMEACASHL
- Km (HCV NS3 protease [1]; [5]): 148 ± 44 µM
- kcat (HCV NS3 protease [1]; [5]): 0.0432 ± 0.01 s⁻¹
- Km (HCV NS3 protease [1]; [6]): 171 ± 23 µM
- kcat (HCV NS3 protease [1]; [6]): 0.00433 ± 0.00017 s⁻¹

Compound: DEMEECASHL [NS4A/4Bs]
- Keat (HCV NS3 protease [2]; absence (−) of 150 mM Nacl): 4 min⁻¹
- Km (HCV NS3 protease [2]; absence (−) of 150 mM Nacl): 10 µM
- Keat (HCV NS3 protease [2]; presence (+) of 150 mM Nacl): 4 min⁻¹
- Km (HCV NS3 protease [2]; presence (+) of 150 mM Nacl): 500 µM

Compound: DEMAECASHL
- Km (HCV NS3 protease [1]; [5]): 190 ± 35 µM
- kcat (HCV NS3 protease [1]; [5]): 0.0468 ± 0.011 s⁻¹
- Km (HCV NS3 protease [1]; [6]): 790 ± 205 µM
- kcat (HCV NS3 protease [1]; [6]): 0.0055 ± 0.001 s⁻¹

Compound: ENSVPCSñSY (not fully specified (C-terminus); printed as ENSVPCSñSY; also: code ñ has no stated meaning) [Pep B28s, substrate peptide for HCV NS3 protease based on selected cleavage site]
- Keat (HCV NS3 protease [2]; absence (−) of 150 mM Nacl): 4 min⁻¹
- Km (HCV NS3 protease [2]; absence (−) of 150 mM Nacl): 15 µM
- Keat (HCV NS3 protease [2]; presence (+) of 150 mM Nacl): 14.5 min⁻¹
- Km (HCV NS3 protease [2]; presence (+) of 150 mM Nacl): 56 µM

Compound: BTLEFCSñSY [Pep B5s]
- Keat (HCV NS3 protease [2]; absence (−) of 150 mM Nacl): 23 min⁻¹
- Km (HCV NS3 protease [2]; absence (−) of 150 mM Nacl): 3.5 µM
- Keat (HCV NS3 protease [2]; presence (+) of 150 mM Nacl): 36 min⁻¹
- Km (HCV NS3 protease [2]; presence (+) of 150 mM Nacl): 27 µM

Compound: ERVVLCSñSY (not fully specified (C-terminus); printed as ERVVLCSñSY; also: code ñ has no stated meaning) [Pep B15s, substrate peptide for HCV NS3 protease based on selected cleavage site]
- Keat (HCV NS3 protease [2]; absence (−) of 150 mM Nacl): 30 min⁻¹
- Km (HCV NS3 protease [2]; absence (−) of 150 mM Nacl): 30 µM
- Keat (HCV NS3 protease [2]; presence (+) of 150 mM Nacl): 44.5 min⁻¹
- Km (HCV NS3 protease [2]; presence (+) of 150 mM Nacl): 13 µM

Compound: DEMEECAAHL
- Km (HCV NS3 protease [1]; [5]): 144 ± 5.6 µM
- kcat (HCV NS3 protease [1]; [5]): 0.0513 ± 0.0025 s⁻¹
- Km (HCV NS3 protease [1]; [6]): 191 ± 11 µM
- kcat (HCV NS3 protease [1]; [6]): 0.0112 ± 0.00067 s⁻¹

Compound: DEMEECFSHL
- Km (HCV NS3 protease [1]; [3]): 156 ± 54 µM
- kcat (HCV NS3 protease [1]; [3]): 0.00333 ± 0.00033 s⁻¹

Compound: EDVVaCSñSY [B14s(NS5A/B)]
- Keat (HCV NS3 protease [2]; absence (−) of 150 mM Nacl): 34 min⁻¹
- Km (HCV NS3 protease [2]; absence (−) of 150 mM Nacl): 4 µM
- Keat (HCV NS3 protease [2]; presence (+) of 150 mM Nacl): 47 min⁻¹
- Km (HCV NS3 protease [2]; presence (+) of 150 mM Nacl): 10 µM

Compound: NEMEECASHL
- Km (HCV NS3 protease [1]; [3]): 188 ± 44 µM
- kcat (HCV NS3 protease [1]; [3]): 0.0483 ± 0.00767 s⁻¹
- Km (HCV NS3 protease [1]; [4]): 630 ± 62 µM
- kcat (HCV NS3 protease [1]; [4]): 0.00617 ± 0.00417 s⁻¹

Compound: DEMEECASHA
- Km (HCV NS3 protease [1]; [5]): 219 ± 10 µM
- kcat (HCV NS3 protease [1]; [5]): 0.05 ± 0.0157 s⁻¹
- Km (HCV NS3 protease [1]; [6]): 260 ± 37 µM
- kcat (HCV NS3 protease [1]; [6]): 0.00967 ± 0.002 s⁻¹

Compound: O=C(O)CN(CCN(CC(=O)O)CC(=O)O)CC(=O)O [EDTA]
- effect of protease inhibitor on cleavage of Pep1 (HeLa lysate): partially inhibited

Compound: Pep1: designed fluorescent (EDANS/DABCYL) 3C protease substrate based on multiple HRV 3C cleavage sites and bioinformatics, Table 14 (LEALFQGPDSQ; not fully specified)
- duration of linear kinetics (HRV 3C protease): at least 3 minutes
- effect of nasal wash on substrate cleavage by recombinant HRV 3C (HRV 3C protease): absence of effect
- lower limit of protease detection (HRV 3C protease): 0.5 to 1.0 nM
- specificity of substrate for cleavage with HRV 3C protease (HRV 3C protease): absolute specificity
- substrate cleavage compared to the native cleavage site (Ori 2) (HRV 3C protease): superior substrate cleavage
- substrate exhibiting the most rapid kinetics out of Pep 1-Pep 9 (HRV 3C protease): most rapid kinetics
- cleavage reaction with E. coli lysate (E. coli lysate): absence of any detectable cleavage reaction
- cleavage reaction with SARS 3CL lysate (SARS 3CL protease): absence of any detectable cleavage reaction

Compound: KEMEECASHL
- Km (HCV NS3 protease [1]; [3]): 449 ± 91 µM
- kcat (HCV NS3 protease [1]; [3]): 0.0447 ± 0.00033 s⁻¹
- Km (HCV NS3 protease [1]; [4]): 1050 ± 430 µM
- kcat (HCV NS3 protease [1]; [4]): 0.00433 ± 0.00167 s⁻¹

Compound: ERLVLCSñSY (not fully specified (C-terminus); printed as ERLVLCSñSY; also: code ñ has no stated meaning) [Pep B19s, substrate peptide for HCV NS3 protease based on selected cleavage site]
- Keat (HCV NS3 protease [2]; absence (−) of 150 mM Nacl): 30 min⁻¹
- Km (HCV NS3 protease [2]; absence (−) of 150 mM Nacl): 11 µM
- Keat (HCV NS3 protease [2]; presence (+) of 150 mM Nacl): 49 min⁻¹
- Km (HCV NS3 protease [2]; presence (+) of 150 mM Nacl): 12 µM

Compound: O=C(O)CN(CCOCCOCCN(CC(=O)O)CC(=O)O)CC(=O)O [EGTA]
- effect of protease inhibitor on cleavage of Pep1 (HeLa lysate; Pep1 as substrate): partially inhibited

Compound: DEMEECASAL
- Km (HCV NS3 protease [1]; [5]): 130 ± 15 µM
- kcat (HCV NS3 protease [1]; [5]): 0.0602 ± 0.016 s⁻¹
- Km (HCV NS3 protease [1]; [6]): 231 ± 39 µM
- kcat (HCV NS3 protease [1]; [6]): 0.0142 ± 0.00267 s⁻¹

Compound: DEMEECASHL
- Km (HCV NS3 protease [1]; [3]): 42.8 ± 4.1 µM
- kcat (HCV NS3 protease [1]; [3]): 0.0233 ± 0.0012 s⁻¹
- Km (HCV NS3 protease [1]; [4]): 105 ± 20 µM
- kcat (HCV NS3 protease [1]; [4]): 0.00433 ± 0.0005 s⁻¹
- Km (HCV NS3 protease [1]; [5]): 42.8 ± 4.1 µM
- kcat (HCV NS3 protease [1]; [5]): 0.0233 ± 0.0012 s⁻¹
- Km (HCV NS3 protease [1]; [6]): 105 ± 20 µM
- kcat (HCV NS3 protease [1]; [6]): 0.00433 ± 0.0005 s⁻¹

Compound: EQVVRCSñSY (not fully specified (C-terminus); printed as EQVVRCSñSY; also: code ñ has no stated meaning) [Pep B8s, substrate peptide for HCV NS3 protease based on selected cleavage site]
- Keat (HCV NS3 protease [2]; absence (−) of 150 mM Nacl): 3 min⁻¹
- Km (HCV NS3 protease [2]; absence (−) of 150 mM Nacl): 7 µM
- Keat (HCV NS3 protease [2]; presence (+) of 150 mM Nacl): 10.5 min⁻¹
- Km (HCV NS3 protease [2]; presence (+) of 150 mM Nacl): 21 µM
